Assay in all cases: ITC
A general note: Isothermal titration calorimetry measures the heat released or taken up as one component is titrated into another.

For assay [1], the target named is human NaV1.2 C-terminal domain (CTD), amino acids 1777-1937, wild type (human) (UniProt Q99250).
Assay [2] concerns the target human NaV1.2 CTD (1777-1937) H1853R (human) (UniProt Q99250).
Assay [3] has as its target human NaV1.2 CTD (1777-1937) R1918H (human) (UniProt Q99250).
Assay [4] concerns the target human NaV1.5 C-terminal domain (CTD), amino acids 1773-1940, wild type (human) (UniProt Q14524).
The target in assay [5] is human NaV1.5 CTD (1773-1940) D1790G (human) (UniProt Q14524).
Assay [6] deals with human NaV1.5 CTD (1773-1940) L1917K (human) (UniProt Q14524).
Assay [7] concerns the target human NaV1.5 CTD (1773-1940) Q1909R (human) (UniProt Q14524).
Assay [8] concerns the target human NaV1.5 CTD (1773-1940) R1913H (human) (UniProt Q14524).
Assay [9] concerns the target human NaV1.5 CTD (1773-1940) Y1795C (human) (UniProt Q14524).
The target of assay [10] is human NaV1.5 CTD (1773-1940) Y1795H (human) (UniProt Q14524).
The target of assay [11] is human NaV1.6 C-terminal domain (CTD), amino acids 1769-1926, wild type (human) (UniProt Q9UQD0).

One substance from PMC5299624 can be followed below.

As usually defined, the stoichiometry N is the number of molecules, sites or subunits per partner or assembly. As for “calmodulin (CaM) (from UniProt P0DP23 1-149) (natural protein)”, the dH in assay [1] is -4.54 kcal/mol; in assay [2] it was -8.3 kcal/mol; in assay [3], -7.5 kcal/mol; in [4], -10.5 kcal/mol; in assay [5] it was -10.5 kcal/mol; in [6], -9.8 kcal/mol. For the same substance, the dH in assay [7] is -14.9 kcal/mol; in assay [9], -7.43 kcal/mol; in [10] it was -10.2 kcal/mol; in assay [11], -17.5 kcal/mol. In addition, the stoichiometry N in assay [1] stood at 1.02; in assay [5] it was 0.25; in [6], 0.98; in assay [8], 0.73; in assay [9], 0.92; in assay [10], 0.76.
